# Publication PMC7809020
# How the values were obtained:
# [1] = molecular target: ATM (biolayer interferometry) (UniProt Q13315); experiment: BLI
# [2] = molecular target: ATM (biolayer interferometry) (UniProt Q13315); experiment: BLI; in vitro; SPOP peptide bound to ATM, measured by diffracted light wavelength
# Chain of SPOP wild-type peptide (O43791 whole entry, looked up, tested part not stated): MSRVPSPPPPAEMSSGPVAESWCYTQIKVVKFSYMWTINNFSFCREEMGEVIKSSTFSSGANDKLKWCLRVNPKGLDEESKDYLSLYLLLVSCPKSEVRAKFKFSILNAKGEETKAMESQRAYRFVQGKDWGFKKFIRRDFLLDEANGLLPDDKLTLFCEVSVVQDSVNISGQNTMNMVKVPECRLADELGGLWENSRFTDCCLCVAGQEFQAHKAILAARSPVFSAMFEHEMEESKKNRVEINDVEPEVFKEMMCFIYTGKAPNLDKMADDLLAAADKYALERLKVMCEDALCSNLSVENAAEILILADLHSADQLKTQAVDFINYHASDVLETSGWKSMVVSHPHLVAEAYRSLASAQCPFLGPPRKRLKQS
Kd [1],amount bound relative to the mutant peptide [2],Substance
45.5 µM,–,SPOP S119N mutant peptide (from UniProt O43791)
–,2 fold,SPOP wild-type peptide
0.0698 µM,–,SPOP wild-type peptide (from UniProt O43791)
